Data published in paper doi:10.1101/699223 (bioRxiv, 2019).

B1: human BBS9 (Bardet-Biedl syndrome protein 9), wild type, Flag-tagged (natural protein, UniProt Q3SYG4 1-887, looked up)
chain: MSLFKARDWWSTILGDKEEFDQGCLCLANVDNSGNGQDKIIVGSFMGYLRIFSPHPAKTGDGAQAEDLLLEVDLRDPVLQVEVGKFVSGTEMLHLAVLHSRKLCVYSVSGTLGNVEHGNQCQMKLMYEHNLQRTACNMTYGSFGGVKGRDLICIQSMDGMLMVFEQESYAFGRFLPGFLLPGPLAYSSRTDSFLTVSSCQQVESYKYQVLAFATDADKRQETEQQKLGSGKRLVVDWTLNIGEQALDICIVSFNQSASSVFVLGERNFFCLKDNGQIRFMKKLDWSPSCFLPYCSVSEGTINTLIGNHNNMLHIYQDVTLKWATQLPHIPVAVRVGCLHDLKGVIVTLSDDGHLQCSYLGTDPSLFQAPNVQSRELNYDELDVEMKELQKIIKDVNKSQGVWPMTEREDDLNVSVVVSPNFDSVSQATDVEVGTDLVPSVTVKVTLQNRVILQKAKLSVYVQPPLELTCDQFTFEFMTPDLTRTVSFSVYLKRSYTPSELEGNAVVSYSRPTDRNPDGIPRVIQCKFRLPLKLICLPGQPSKTASHKITIDTNKSPVSLLSLFPGFASQSDDDQVNVMGFHFLGGARITVLASKTSQRYRIQSEQFEDLWLITNELILRLQEYFEKQGVKDFACSFSGSIPLQEYFELIDHHFELRINGEKLEELLSERAVQFRAIQRRLLARFKDKTPAPLQHLDTLLDGTYKQVIALADAVEENQGNLFQSFTRLKSATHLVILLIALWQKLSADQVAILEAAFLPLQEDTQELGWEETVDAAISHLLKTCLSKSSKEQALNLNSQLNIPKDTSQLKKHITLLCDRLSKGGRLCLSTDAAAPQTMVMPGGCTTIPESDLEERSVEQDSTELFTNHRHLTAETPRPEVSPLQGVSE
B2: human BBS2 (Bardet-Biedl syndrome protein 2), wild type, HPC4- and c-Myc-tagged (natural protein, UniProt Q9BXC9 1-721, looked up)
chain: MLLPVFTLKLRHKISPRMVAIGRYDGTHPCLAAATQTGKVFIHNPHTRNQHVSASRVFQSPLESDVSLLSINQAVSCLTAGVLNPELGYDALLVGTQTNLLAYDVYNNSDLFYREVADGANAIVLGTLGDISSPLAIIGGNCALQGFNHEGSDLFWTVTGDNVNSLALCDFDGDGKKELLVGSEDFDIRVFKEDEIVAEMTETEIVTSLCPMYGSRFGYALSNGTVGVYDKTSRYWRIKSKNHAMSIHAFDLNSDGVNELITGWSNGKVDARSDRTGEVIFKDNFSSAIAGVVEGDYRMDGHIQLICCSVDGEIRGYLPGTAEMRGNLMDTSAEQDLIRELSQKKQNLLLELRNYEENAKAELASPLNEADGHRGIIPANTRLHTTLSVSLGNETQTAHTELRISTSNDTIIRAVLIFAEGIFTGESHVVHPSIHNLSSSICIPIVPPKDVPVDLHLKAFVGYRSSTQFHVFESTRQLPRFSMYALTSLDPASEPISYVNFTIAERAQRVVVWLGQNFLLPEDTHIQNAPFQVCFTSLRNGGHLHIKIKLSGEITINTDDIDLAGDIIQSMASFFAIEDLQVEADFPVYFEELRKVLVKVDEYHSVHQKLSADMADHSNLIRSLLVGAEDARLMRDMKTMKSRYMELYDLNRDLLNGYKIRCNNHTELLGNLKAVNQAIQRAGRLRVGKPKNQVITACRDAIRSNNINTLFKIMRVGTASS

How the values were obtained:
[1] = target: T1, human BBS2 R632P, c-Myc-tagged (human, UniProt Q9BXC9 1-721, R632P); assay: co-IP
T1 sequence (looked up): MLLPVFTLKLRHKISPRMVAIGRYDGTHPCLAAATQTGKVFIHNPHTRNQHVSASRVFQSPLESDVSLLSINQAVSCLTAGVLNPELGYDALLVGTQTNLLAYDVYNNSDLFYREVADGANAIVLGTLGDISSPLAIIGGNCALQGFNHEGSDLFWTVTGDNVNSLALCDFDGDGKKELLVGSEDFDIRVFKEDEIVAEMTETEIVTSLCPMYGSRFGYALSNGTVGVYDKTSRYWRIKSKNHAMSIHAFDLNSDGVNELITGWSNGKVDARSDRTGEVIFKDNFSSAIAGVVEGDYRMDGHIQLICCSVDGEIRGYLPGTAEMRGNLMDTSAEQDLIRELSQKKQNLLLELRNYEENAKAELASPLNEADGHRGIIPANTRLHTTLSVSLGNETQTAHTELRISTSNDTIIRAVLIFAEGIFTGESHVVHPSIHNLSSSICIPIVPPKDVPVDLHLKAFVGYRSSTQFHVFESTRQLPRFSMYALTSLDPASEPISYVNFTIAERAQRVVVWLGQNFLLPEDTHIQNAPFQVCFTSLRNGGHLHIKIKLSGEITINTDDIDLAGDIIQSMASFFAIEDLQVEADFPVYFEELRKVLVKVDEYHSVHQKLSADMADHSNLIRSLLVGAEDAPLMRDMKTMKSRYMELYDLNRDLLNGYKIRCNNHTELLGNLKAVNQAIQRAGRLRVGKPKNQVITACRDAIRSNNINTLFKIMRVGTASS

[2] = target: B1; assay: negative-stain EM reconstruction + cross-linking
[3] = target: B2; assay: co-IP

B1
reduction in binding relative to WT [1]: 70%

B2
binding result [2]: binds

B3: human BBS9 G141R, Flag-tagged (natural protein, UniProt Q3SYG4 1-887, looked up)
chain: MSLFKARDWWSTILGDKEEFDQGCLCLANVDNSGNGQDKIIVGSFMGYLRIFSPHPAKTGDGAQAEDLLLEVDLRDPVLQVEVGKFVSGTEMLHLAVLHSRKLCVYSVSGTLGNVEHGNQCQMKLMYEHNLQRTACNMTYRSFGGVKGRDLICIQSMDGMLMVFEQESYAFGRFLPGFLLPGPLAYSSRTDSFLTVSSCQQVESYKYQVLAFATDADKRQETEQQKLGSGKRLVVDWTLNIGEQALDICIVSFNQSASSVFVLGERNFFCLKDNGQIRFMKKLDWSPSCFLPYCSVSEGTINTLIGNHNNMLHIYQDVTLKWATQLPHIPVAVRVGCLHDLKGVIVTLSDDGHLQCSYLGTDPSLFQAPNVQSRELNYDELDVEMKELQKIIKDVNKSQGVWPMTEREDDLNVSVVVSPNFDSVSQATDVEVGTDLVPSVTVKVTLQNRVILQKAKLSVYVQPPLELTCDQFTFEFMTPDLTRTVSFSVYLKRSYTPSELEGNAVVSYSRPTDRNPDGIPRVIQCKFRLPLKLICLPGQPSKTASHKITIDTNKSPVSLLSLFPGFASQSDDDQVNVMGFHFLGGARITVLASKTSQRYRIQSEQFEDLWLITNELILRLQEYFEKQGVKDFACSFSGSIPLQEYFELIDHHFELRINGEKLEELLSERAVQFRAIQRRLLARFKDKTPAPLQHLDTLLDGTYKQVIALADAVEENQGNLFQSFTRLKSATHLVILLIALWQKLSADQVAILEAAFLPLQEDTQELGWEETVDAAISHLLKTCLSKSSKEQALNLNSQLNIPKDTSQLKKHITLLCDRLSKGGRLCLSTDAAAPQTMVMPGGCTTIPESDLEERSVEQDSTELFTNHRHLTAETPRPEVSPLQGVSE
reduction in binding relative to WT [3]: 70%
